According to patent US20220169720:

Tests used:
[1] = test system: Rubicon (RUN domain protein as Beclin-1 interacting and cysteine-rich containing), wild-type
[2] = test system: Rubicon mutant's 117-189 amino acids (phosphor-null mutants, single serine/threonine substituted with alanine)

Sequence of Rubicon (RUN domain protein as Beclin-1 interacting and cysteine-rich containing), wild-type (chain, as listed by the source): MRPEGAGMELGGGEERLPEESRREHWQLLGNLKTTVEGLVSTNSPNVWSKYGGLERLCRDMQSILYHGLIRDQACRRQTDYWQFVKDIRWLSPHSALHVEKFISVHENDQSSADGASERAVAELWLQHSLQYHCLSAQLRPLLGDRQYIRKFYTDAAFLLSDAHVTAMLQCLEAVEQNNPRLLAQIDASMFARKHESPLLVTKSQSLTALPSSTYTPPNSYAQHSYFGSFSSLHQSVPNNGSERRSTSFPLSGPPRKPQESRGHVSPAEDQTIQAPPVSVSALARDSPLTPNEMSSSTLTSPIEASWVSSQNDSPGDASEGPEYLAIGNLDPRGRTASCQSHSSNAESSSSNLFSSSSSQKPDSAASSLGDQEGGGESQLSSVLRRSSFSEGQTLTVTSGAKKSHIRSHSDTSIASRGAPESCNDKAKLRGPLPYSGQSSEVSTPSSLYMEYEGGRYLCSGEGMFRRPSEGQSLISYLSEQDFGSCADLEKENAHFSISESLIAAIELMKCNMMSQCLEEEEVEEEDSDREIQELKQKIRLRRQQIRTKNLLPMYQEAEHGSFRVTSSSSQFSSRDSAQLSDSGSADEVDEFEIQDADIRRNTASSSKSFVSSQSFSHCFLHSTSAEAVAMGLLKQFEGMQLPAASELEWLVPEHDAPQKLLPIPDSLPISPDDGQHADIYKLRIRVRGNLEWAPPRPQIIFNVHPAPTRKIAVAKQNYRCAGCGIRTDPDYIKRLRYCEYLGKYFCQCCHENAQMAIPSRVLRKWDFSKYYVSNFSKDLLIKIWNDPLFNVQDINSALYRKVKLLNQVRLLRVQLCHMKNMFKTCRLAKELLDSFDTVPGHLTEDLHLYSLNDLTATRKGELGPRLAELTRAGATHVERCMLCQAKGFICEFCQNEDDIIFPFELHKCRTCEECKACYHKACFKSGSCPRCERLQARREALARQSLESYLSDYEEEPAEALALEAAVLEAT

Row | Substance | extent of Rubicon phosphorylation by LRRK2 kinase (kinase assay with wild-type or phosphor-null mutant Rubicon as substrate) [1] | pT166-Rubicon by ELISA in human neurons transiently over-expressing wild-type (WT) LRRK2 [1] | pT166-Rubicon by ELISA in human neurons with endogenous LRRK2 knocked down [1] | amount of generated ADP as a by-product of LRRK2 kinase activity [2] | pT166-Rubicon by ELISA in human neurons transiently over-expressing mutant LRRK2-G2019S [1]
1 | Leucine-rich repeat kinase 2 (LRRK2), wild-type | determined T166 and S189 as the consensus LRRK2-specific phosphosites | 12% and 26% increase in pT166-Rubicon respectively compared to control | 32.4% decrease in pT166-Rubicon compared to control | Rubicon mutant's 117-189 amino acids significantly decreased LRRK2 kinase activity | –
2 | mutant LRRK2-G2019S | – | – | – | – | 12% and 26% increase in pT166-Rubicon respectively compared to control
